Paper PMC7671478, “Structure of the helicase core of Werner helicase, a key target in microsatellite instability cancers”

Molecular target: WRN helicase core (531-950), lacking the WH domain (Homo sapiens, UniProt Q14191 531-950)
Assay: HDX-MS; protein:ssDNA 1:2.5, no nucleotide analogue added; protection of D2 hairpin/motif IV peptide only after 4 h labelling; HDX-MS: WRN stock 16.66 uM in 15 mM Hepes, 150 mM NaCl, pH 7.3; 2 min equilibration with ligand, then 16-fold dilution into deuterated buffer, room temperature, 10 s to 4 h
Conditions: protein: recombinant; tags: N-terminal His-Zbasic tag, TEV-cleaved; single strand

Sequence of WRN helicase core (531-950), lacking the WH domain (Q14191 531-950): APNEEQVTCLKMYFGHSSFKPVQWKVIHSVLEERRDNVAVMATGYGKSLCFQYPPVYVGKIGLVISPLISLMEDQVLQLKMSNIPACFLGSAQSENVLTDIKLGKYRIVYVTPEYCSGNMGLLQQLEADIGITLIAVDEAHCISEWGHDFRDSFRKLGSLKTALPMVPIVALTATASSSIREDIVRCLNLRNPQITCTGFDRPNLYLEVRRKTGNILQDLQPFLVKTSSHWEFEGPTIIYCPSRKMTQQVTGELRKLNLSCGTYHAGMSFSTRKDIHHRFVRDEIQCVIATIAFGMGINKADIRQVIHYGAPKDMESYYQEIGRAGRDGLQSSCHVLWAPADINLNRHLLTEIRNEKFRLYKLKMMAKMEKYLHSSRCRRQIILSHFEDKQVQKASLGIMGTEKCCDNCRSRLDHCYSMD

CCAGGTCGATAGGTTCGAATTGGTT (ssDNA) [25-nt ssDNA]: binds.
